{"source": "patent US5622828", "about": "“High-affinity oligonucleotide ligands to secretory phospholipase A2 (sPLA2)” (Nexstar Pharmaceuticals, Inc.)", "key": {"[1]": {"biological_target": "T1, secretory phospholipase A2 (sPLA2) (Homo sapiens, UniProt P14555 P14555:21-144)", "T1 sequence": "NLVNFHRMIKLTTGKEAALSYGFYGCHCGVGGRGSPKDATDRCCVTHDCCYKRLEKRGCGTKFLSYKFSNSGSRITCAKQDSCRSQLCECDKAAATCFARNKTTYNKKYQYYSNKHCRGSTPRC", "assay": "filter; biphasic, Kd2 150 nM, mole fraction 0.2; conserved G replaced by U; TBSC, 37 C", "conditions": "tags: supplied by Eli Lilly; hairpin with asymmetric internal loop", "procedure": "(§1) The nitrocellulose filter partitioning method was used as described in SELEX Patent Applications to determine the affinity of RNA ligands for sPLA_2 and for other promins. Filter discs (nitrocellulose/cellulose acetate mixed matrix, 0.45 µm pore size, Millipore) were placed on a vacuum manifold and washed with 5 ml of TBSC buffer under vacuum. Reaction mixtures, containing ^32P labeled RNA pools and sPLA_2, were incubated in TBSC for 5 minutes at 37° C., filtered, and then immediately washed with 5 ml TBSC. The filters were air-dried and counted in a Beckman liquid scintillation counter without fluor.\n(§2) The dissociation constants for representative members of families I–VI, orphan and other ligands were determined by nitrocellulose filter binding experiments and are listed in Table III. Unlike random RNA, all tested ligands from the 2'OH SELEXes bound biphasically."}, "[2]": {"biological_target": "T2, basic fibroblast growth factor (bFGF) (Homo sapiens, UniProt P09038 P09038:143-288)", "T2 sequence (P09038 143-288, one chain of several)": "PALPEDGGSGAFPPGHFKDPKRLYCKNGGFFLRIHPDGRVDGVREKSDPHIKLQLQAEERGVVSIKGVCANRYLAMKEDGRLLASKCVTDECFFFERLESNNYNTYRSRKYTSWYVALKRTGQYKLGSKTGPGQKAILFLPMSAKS", "assay": "filter; specificity control, like random RNA; TBSC", "procedure": "(§3) The affinity of sPLA_2 ligands 2, 72, 80, 87, NN19 and NN19.15 (SEQ ID NOs.:11, 20, 53, 54, 64, and 117, respectively) for proteins other than sPLA_2 was determined by nitrocellulose partitioning (Tables IV and V). Like sPLA_2, hen egg white lysozyme, bFGF and elastase are small, highly cationic proteins. Bovine pancreatic PLA_2 is an evolutionarily and structurally related enzyme. […] Specificity is particularly well illustrated by the affinities for bovine pancreatic PLA_2 which is 10^4-fold less than that for human sPLA_2.\n(§4) *Standard binding experiments were performed to the specified target protein in TBSC and K_d's calculated by curve fitting. The ligands bind no better than randomized RNA (30N1) to human neutrophil elastase, human basic fibroblast growth factor (bFGF), and human immunoglobulin G (IgG and C1q)."}, "neutrophil elastase": {"biological_target": "neutrophil elastase (Homo sapiens, UniProt P08246 P08246:30-267)", "sequence (P08246 30-267, one chain of several)": "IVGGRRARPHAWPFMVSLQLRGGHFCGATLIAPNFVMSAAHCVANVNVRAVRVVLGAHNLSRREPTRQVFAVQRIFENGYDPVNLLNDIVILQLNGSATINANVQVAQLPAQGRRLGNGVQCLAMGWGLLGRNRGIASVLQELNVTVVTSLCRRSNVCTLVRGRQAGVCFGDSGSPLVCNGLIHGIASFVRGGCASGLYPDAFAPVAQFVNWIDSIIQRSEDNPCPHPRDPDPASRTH", "assay": "filter; specificity control, like random RNA; TBSC", "procedure": "as §3, §4"}, "[3]": {"biological_target": "T1, secretory phospholipase A2 (sPLA2)", "assay": "filter; monophasic; Table V prints 1 nM; TBSC, 37 C", "conditions": "tags: supplied by Eli Lilly; hairpin with asymmetric internal loop"}, "[4]": {"biological_target": "T1, secretory phospholipase A2 (sPLA2)", "assay": "filter; biphasic, Kd2 200 nM, mole fraction 0.20; calcium dependent; TBSC, 37 C", "conditions": "tags: supplied by Eli Lilly", "procedure": "as §1, §2"}, "[5]": {"biological_target": "T1, secretory phospholipase A2 (sPLA2)", "assay": "filter; biphasic, Kd2 82 nM, mole fraction 0.50; TBSC, 37 C", "conditions": "tags: supplied by Eli Lilly", "procedure": "as §1, §2"}, "[6]": {"biological_target": "T1, secretory phospholipase A2 (sPLA2)", "assay": "filter; biphasic, Kd2 43 nM, mole fraction 0.25; TBSC, 37 C", "conditions": "tags: supplied by Eli Lilly", "procedure": "as §1, §2"}, "C1q (printed Clq)": {"biological_target": "C1q (printed Clq) (Homo sapiens, UniProt P02745;P02746;P02747 P02745:23-245,P02746:28-253,P02747:29-245)", "sequence (P02745 23-245, chain 1 of 3)": "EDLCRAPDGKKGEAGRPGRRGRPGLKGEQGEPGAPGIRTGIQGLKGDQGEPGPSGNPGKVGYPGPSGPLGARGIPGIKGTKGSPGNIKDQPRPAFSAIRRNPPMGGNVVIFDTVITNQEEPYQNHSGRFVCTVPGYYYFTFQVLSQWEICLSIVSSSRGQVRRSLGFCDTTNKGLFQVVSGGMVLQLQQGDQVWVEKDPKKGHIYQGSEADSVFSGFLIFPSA", "sequence (P02746 28-253, chain 2 of 3)": "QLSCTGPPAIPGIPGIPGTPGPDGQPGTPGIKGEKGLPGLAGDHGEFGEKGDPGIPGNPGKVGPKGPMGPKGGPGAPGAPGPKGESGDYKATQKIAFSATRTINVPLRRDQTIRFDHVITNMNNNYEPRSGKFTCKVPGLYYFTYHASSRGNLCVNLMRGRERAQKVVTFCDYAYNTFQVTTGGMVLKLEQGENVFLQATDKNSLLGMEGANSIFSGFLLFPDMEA", "sequence (P02747 29-245, chain 3 of 3)": "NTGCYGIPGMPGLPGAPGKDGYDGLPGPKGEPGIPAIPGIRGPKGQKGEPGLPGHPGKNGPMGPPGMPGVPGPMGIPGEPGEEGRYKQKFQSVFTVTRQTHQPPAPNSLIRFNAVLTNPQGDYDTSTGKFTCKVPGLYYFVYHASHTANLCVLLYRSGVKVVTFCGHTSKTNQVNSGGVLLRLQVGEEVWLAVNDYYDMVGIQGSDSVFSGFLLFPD", "assay": "filter; specificity control, like random RNA; TBSC", "conditions": "chain copies: 6", "procedure": "as §3, §4"}, "[7]": {"biological_target": "T1, secretory phospholipase A2 (sPLA2)", "assay": "filter; Table V prints 0.4 nM; TBSC, 37 C", "conditions": "tags: supplied by Eli Lilly"}, "[8]": {"biological_target": "T2, basic fibroblast growth factor (bFGF)", "assay": "filter; specificity control, like random RNA; TBSC", "procedure": "as §3\n(§5) *Standard binding experiments were performed to the specified target protein in TBSC and K_d's is calculated by curve fitting. The ligands bind no better than randomized RNA (30N1) to lysozyme (hen egg-white), human basic fibroblast growth factor basic (bFGF) and bovine pancreatic PLA₂. The sPLA₂ K_d that of the high affinity species.", "remark": "listed apart in the source"}, "lysozyme (egg white)": {"biological_target": "lysozyme (egg white) (Gallus gallus, UniProt P00698 P00698:19-147)", "sequence (P00698 19-147, one chain of several)": "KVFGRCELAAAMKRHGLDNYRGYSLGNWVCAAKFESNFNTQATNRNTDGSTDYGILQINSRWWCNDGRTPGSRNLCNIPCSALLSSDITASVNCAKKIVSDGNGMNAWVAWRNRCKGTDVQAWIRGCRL", "assay": "filter; specificity control, like random RNA; TBSC", "conditions": "tags: 6x crystallized", "procedure": "as §3, §5"}, "[9]": {"biological_target": "pancreatic phospholipase A2 (bpPLA2) (Bos taurus, UniProt P00593 P00593:23-145)", "sequence (P00593 23-145, one chain of several)": "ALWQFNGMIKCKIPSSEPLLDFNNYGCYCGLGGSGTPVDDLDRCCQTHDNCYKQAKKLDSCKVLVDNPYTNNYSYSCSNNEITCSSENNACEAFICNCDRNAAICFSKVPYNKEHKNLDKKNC", "assay": "filter; specificity control, like random RNA; TBSC", "procedure": "as §3, §5"}, "[10]": {"biological_target": "T1, secretory phospholipase A2 (sPLA2)", "assay": "filter; biphasic, Kd2 270 nM, mole fraction 0.13; Table III prints SEQ 103, Table IV SEQ 20; TBSC, 37 C", "conditions": "tags: supplied by Eli Lilly", "procedure": "as §1, §2"}, "[11]": {"biological_target": "T1, secretory phospholipase A2 (sPLA2)", "assay": "filter; biphasic, Kd2 92 nM, mole fraction 0.60; TBSC, 37 C", "conditions": "tags: supplied by Eli Lilly", "procedure": "as §1, §2"}, "[12]": {"biological_target": "T1, secretory phospholipase A2 (sPLA2)", "assay": "filter; biphasic, Kd2 350 nM, mole fraction 0.70; TBSC, 37 C", "conditions": "tags: supplied by Eli Lilly", "procedure": "as §1, §2"}, "[13]": {"biological_target": "T1, secretory phospholipase A2 (sPLA2)", "assay": "filter; biphasic, Kd2 240 nM, mole fraction 0.50; TBSC, 37 C", "conditions": "tags: supplied by Eli Lilly", "procedure": "as §1, §2"}, "[14]": {"biological_target": "T1, secretory phospholipase A2 (sPLA2)", "assay": "filter; biphasic, Kd2 140 nM, mole fraction 0.65; TBSC, 37 C", "conditions": "tags: supplied by Eli Lilly", "procedure": "as §1, §2"}, "[15]": {"conditions": "hairpin with asymmetric internal loop"}}, "note": "Like-named read-outs stand apart in the source and are kept apart here.", "data": [{"binder": "NN27 (ssRNA, 2'-NH2 all C and U) RNA: GGGAAAAGCGAAUCAUACACAAGACCGGCCGGGGAAACCCGAGGUCCGAUGUAACGCAUGGCGCCUCACCGAGUCGCUCCGCCAGAGACCAACCGAGAA", "values": [{"measurement": "Kd", "setting": "[1]", "result": 0.4, "unit": "nM"}]}, {"binder": "NN19 (ssRNA, 2'-NH2 all C and U) RNA: GGGAAAAGCGAAUCAUACACAAGACCGGCCGGCGCCAUAGCCGAGAUCCGAGGUGUUGAACGAUAACUCGGUGCUCCGCCAGAGACCAACCGAGAA", "values": [{"measurement": "Kd", "setting": "[2]; [15]", "result": 210, "unit": "nM"}, {"measurement": "Kd", "setting": "neutrophil elastase; [15]", "result": 40, "unit": "nM"}, {"measurement": "Kd", "setting": "[3]", "result": 0.4, "unit": "nM"}]}, {"binder": "60 (orphan) (ssRNA) RNA: GGGAGCUCAGAAUAAACGCUCAAACAACGGCCCACACGGGAGAUCCGAGAAAAGUUCGACAUGAGGCCCGGAUCCGGC", "values": [{"measurement": "Kd", "setting": "[4]", "result": 0.3, "unit": "nM"}]}, {"binder": "93 (ssRNA) RNA: GGGAGCUCAGAAUAAACGCUCAACAGCCAAUGUGUCCCGUACGGCGUAUCCUAUUCGACAUGAGGCCCGGAUCCGGC", "values": [{"measurement": "Kd", "setting": "[5]", "result": 17.2, "unit": "nM"}]}, {"binder": "1 (orphan) (ssRNA) RNA: GGGAGCUCAGAAUAAACGCUCAAGCCGAACCGAAUGGAGGUGGAGGGAUUGCGUUCGACAUGAGGCCCGGAUCCGGC", "values": [{"measurement": "Kd", "setting": "[6]", "result": 1.4, "unit": "nM"}]}, {"binder": "NN19.15 (ssRNA, 2'-NH2 all C and U) RNA: GGGAAAAGAAGACCGGCCGGCGCCAUAGCCGAGAUCCGAGGUGUUGCCGAGAA", "values": [{"measurement": "Kd", "setting": "C1q (printed Clq)", "result": 1000, "unit": "nM"}, {"measurement": "Kd", "setting": "[2]", "result": 165, "unit": "nM"}, {"measurement": "Kd", "setting": "neutrophil elastase", "result": 40, "unit": "nM"}, {"measurement": "Kd", "setting": "[7]", "result": 1.7, "unit": "nM"}]}, {"binder": "72 (ssRNA) RNA: GGGAGCUCAGAAUAAACGCUCAAGACCUCUGCUUACAGCCCGGCUGAGACACUUCGACAUGAGGCCCGGAUCCGGC", "values": [{"measurement": "Kd", "setting": "[8]", "result": 180, "unit": "nM"}, {"measurement": "Kd", "setting": "lysozyme (egg white)", "result": 1500, "unit": "nM"}, {"measurement": "Kd", "setting": "[9]", "result": 29000, "unit": "nM"}, {"measurement": "Kd", "setting": "[10]", "result": 0.5, "unit": "nM"}]}, {"binder": "85 (ssRNA) RNA: GGGAGCUCAGAAUAAACGCUCAAAUUGCAUCAUGUACCGCAAGACGUAUUCUAUUCGACAUGAGGCCCGGAUCCGGC", "values": [{"measurement": "Kd", "setting": "[11]", "result": 3.8, "unit": "nM"}]}, {"binder": "54 (ssRNA) RNA: GGGAGCUCAGAAUAAACGCUCAAAUUGCAUCAUGUACCGUAAGACGUAUUCUAUUCGACAUGAGGCCCGGAUCCGGC", "values": [{"measurement": "Kd", "setting": "[12]", "result": 16.6, "unit": "nM"}]}, {"binder": "18 (ssRNA) RNA: GGGAGCUCAGAAUAAACGCUCAAAUCGCAUCAUGUACCGCAAGACGUAUUCUAUUCGACAUGAGGCCCGGAUCCGGC", "values": [{"measurement": "Kd", "setting": "[13]", "result": 5, "unit": "nM"}]}, {"binder": "95 (ssRNA) RNA: GGGAGCUCAGAAUAAACGCUCAACGCUGGAUACCAUCGCACGGCGUAUCCUGCUUCGACAUGAGGCCCGGAUCCGGC", "values": [{"measurement": "Kd", "setting": "[14]", "result": 4.5, "unit": "nM"}]}]}
